Results reported in patent US20070004909A1 (MacroGenics, published 2007).

What was measured:
soluble CD32B (sCD32B) [1] = biological target: T1, soluble CD32B (sCD32B) (UniProt P31994 43-217, limits assumed); assay: SPR (BIAcore), sCD32B immobilised, diabody injected for 60 s
T1 construct: extracellular domain; As immobilised on the BIAcore chip; also called FcγRIIB
T1 sequence (looked up): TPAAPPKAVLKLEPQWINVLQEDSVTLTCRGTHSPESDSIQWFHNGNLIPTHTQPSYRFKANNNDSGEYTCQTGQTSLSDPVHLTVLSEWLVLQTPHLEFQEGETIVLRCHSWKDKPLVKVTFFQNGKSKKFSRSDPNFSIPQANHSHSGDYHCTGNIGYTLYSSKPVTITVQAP
Procedure: (§1) The binding of h2B6-h3G8 CBD, h2B6 CMD and h3G8 CMD to sCD16A, sCD32B, and sCD32A (negative control) was assayed by SPR analysis. h3G8 scFv was also tested as a control. (A) Binding to sCD16; (B) Binding to sCD32B and (C) Binding to sCD32A. Diabodies were injected at a concentration of 100 NM, and scFv at a concentration of 200 nM, over receptor surfaces at a flow rate of […] for 60 sec.

soluble CD32A (sCD32A) = biological target: T2, soluble CD32A (sCD32A) (UniProt P12318 34-217, limits assumed); assay: SPR (BIAcore), sCD32A (negative control receptor) immobilised, diabody injected for 60 s
T2 construct: extracellular domain; Negative control surface in SPR; also called control receptor
T2 sequence (looked up): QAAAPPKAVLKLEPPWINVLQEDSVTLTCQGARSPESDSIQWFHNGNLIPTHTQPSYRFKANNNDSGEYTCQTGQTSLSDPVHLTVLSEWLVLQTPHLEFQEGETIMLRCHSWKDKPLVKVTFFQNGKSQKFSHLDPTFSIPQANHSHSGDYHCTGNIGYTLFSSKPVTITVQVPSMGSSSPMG
Procedure: as §1

sCD32B-Ig = biological target: T3, sCD32B-Ig (UniProt P31994 43-217); assay: sandwich ELISA: sCD32B-Ig coated on the plate, diabody titrated, detected with labelled sCD16A; OD450
T3 construct: extracellular domain; also called CD32B (ELISA coat); sCD32B (target protein of the sandwich ELISAs); not shown: Ig part of sCD32B-Ig is not described
T3 sequence (looked up): T1 sequence (looked up)
Procedure: The binding of h2B6-h3G8 CBD to sCD32B and sCD16A was assayed in a sandwich ELISA. sCD32B was used as the target protein. The secondary probe was HRP conjugated sCD16A. h3G8 CMD, which binds CD16A, was used as control.
ELISA: The binding of eluted and purified diabodies was characterized by ELISA assay, as described in 5.4.2. 50 ul/well of a 2 ug/ml solution of sCD32B-Ig was coated on 96-well Maxisorp plate in Carbonate buffer at 4° C. over night. The plate was washed three times with PBS-T (PBS, 0.1% Tween 20) and blocked by 0.5% BSA in PBS-T for 30 minutes at room temperature. Subsequently, h2B6-h3G8 CBD, h2B6 CMD, or h3G8 CMD were diluted into the blocking buffer in a serial of two-fold dilutions to generate a range of diabody concentrations, from 0.5 μg/ml to 0.001 μg/ml. The plate was then incubated at room temperature for 1 hour. After washing with PBS-T three times, 50 ul/well of 0.2 ug/ml sCD16A-Biotin was added to each well. The plate was again incubated at room temperature for 1 hour. After washing with PBS-T three times, 50 ul/well of a 1:5000 dilution of HRP conjugated streptavidin (Amersham Pharmacia Biotech) was used for detection. The HRP-streptavidin was allowed to incubate for 45 minutes at room temperature. […] The OD450 nm was read by using a 96-well plate reader and SOFTmax software, and results plotted using GraphPadPrism 3.03 software. […]

soluble CD16A (sCD16A) [2] = biological target: T4, soluble CD16A (sCD16A) (UniProt P08637 17-208, limits assumed); assay: SPR (BIAcore 1000); receptor amine-coupled (~1000 RU), analyte 6.25-200 nM; units not printed (koff/kon implies nM)
T4 construct: extracellular domain; Amine-coupled to the chip in SPR; biotin- or HRP-conjugated as the probe in the sandwich ELISAs; also called FcγRIIIA; sCD16A-Biotin
T4 sequence (P08637 17-208 limits assumed): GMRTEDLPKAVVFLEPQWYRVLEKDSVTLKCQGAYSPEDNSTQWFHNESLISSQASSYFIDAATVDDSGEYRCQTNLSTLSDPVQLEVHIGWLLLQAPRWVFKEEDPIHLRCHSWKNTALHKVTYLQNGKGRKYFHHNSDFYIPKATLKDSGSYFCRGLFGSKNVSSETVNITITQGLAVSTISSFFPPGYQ
Procedure: (§2) The binding of h2B6-h3G8 CBD, h2B6 CMD and h3G8 CMD to sCD16A, and sCD32B was assayed by SPR analysis. h3G8 scFv was also tested as a control. (A) Binding of to h3G8 CMD sCD16A; (B) Binding of h2B6-h3G8 CBD to sCD16A; (C) Binding of h3G8 scFv to sCD16A; (D) Binding of h2B6 CMD to sCD32B; and (E) Binding of h2B6-h3G8 CBD to sCD32B. Diabodies were injected at concentrations of 6.25-200 nM over receptor surfaces at a flow rate of […] for 180 sec.
(§3) SPR analysis was also used to estimate the kinetic and equilibrium constants of the CMDs and h2B6-h3G8 CBD to sCD16 and/or sCD32B. Results were compared to the same constants calculated for an h3G8 scFV. FIGS. 7A-E show the graphical results of the SPR analysis. The kinetic on and off rates, as well as the equilibrium constant, calculated from the results depicted in FIG. 7 are provided in Table 13.

soluble CD16A (sCD16A) [3] = biological target: T4, soluble CD16A (sCD16A); assay: sandwich ELISA: sCD32B coated on the plate (figure legend), purified diabody diluted 1:25 to 1:100, HRP-conjugated sCD16A as the probe; OD450
soluble CD16A (sCD16A) [4] = biological target: T4, soluble CD16A (sCD16A); assay: sandwich ELISA: mCD32B coated on the plate, diabody preparation diluted 1:25 and 1:50, biotin-conjugated sCD16A as the probe; OD450
Procedure: (§4) The binding of diabody molecules derived from the polyprotein precursor molecule construct 13 (SEQ ID NO:97) to murine CD32B (mCD32B) and soluble CD16A (sCD16A) was assayed in a sandwich ELISA. mCD32B was used as the target protein. The secondary probe was biotin conjugated sCD16A.
(§5) ELISA: The binding of diabody molecules secreted into the medium was assayed by sandwich ELISA as described, supra. Murine CD32B was used to coat the plate, i.e., as the target protein, and HRP-conjugated CD16A was used as the probe for the product of the co-transfection of constructs 15 and 16. mCD32B was used as the target protein and biotin-conjugated CD16A was used as the probe for the recombinant system comprising construct 13.
(§6) Conditioned media from the recombinant expression systems comprising constructs 13 was analysed by sandwich ELISA. The ELISA assay tested the binding of the CBD for specificity to either or both of mCD32B and/or CD16 (FIG. 18). CD32B served as the target antigen and CD16A was used as the secondary probe.

murine CD32B (mCD32B) = biological target: T5, murine CD32B (mCD32B) (murine, UniProt P08101 30-210, limits assumed); assay: as above
T5 construct: Coating protein of the sandwich ELISA for the construct 13 product
T5 sequence (looked up): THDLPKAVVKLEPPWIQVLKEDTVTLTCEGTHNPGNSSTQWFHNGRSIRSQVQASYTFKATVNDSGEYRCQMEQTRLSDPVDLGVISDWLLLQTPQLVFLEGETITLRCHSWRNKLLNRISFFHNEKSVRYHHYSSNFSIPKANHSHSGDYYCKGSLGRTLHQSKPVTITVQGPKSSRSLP
Procedure: as §4, §5, §6

soluble CD16A (sCD16A) [5] = biological target: T4, soluble CD16A (sCD16A); assay: SPR (BIAcore), sCD16 immobilised, diabody injected for 60 s
Procedure: as §1

soluble CD32B (sCD32B) [6] = biological target: T1, soluble CD32B (sCD32B); assay: SPR (BIAcore 1000); receptor amine-coupled (~1000 RU), analyte 6.25-200 nM; units not printed (koff/kon implies nM)
Procedure: as §2, §3

B1: h3G8 covalent monospecific diabody (CMD) (other)
chain 1: DIVMTQSPDSLAVSLGERATINCKASQSVDFDGDSFMNWYQQKPGQPPKLLIYTTSNLESGVPDRFSGSGSGTDFTLTISSLQAEDVAVYYCQQSNEDPYTFGQGTKLEIKGGGSGGGGQVTLRESGPALVKPTQTLTLTCTFSGFSLSTSGMGVGWIRQPPGKALEWLAHIWWDDDKRYNPALKSRLTISKDTSKNQVVLTMTNMDPVDTATYYCAQINPAWFAYWGQGTLVTVSSLGGC
chain 2: B1 chain 1
modifications: Covalent homodimer: disulfide between the C-terminal LGGC cysteines of the two identical chains.
notes: also called h3G8 CMD; h3G8 diabody
- binding result (soluble CD32B (sCD32B) [1]): no binding (tested: 100 nM)
- binding result (soluble CD32A (sCD32A)): no binding (tested: 100 nM)
- binding result (sCD32B-Ig): no binding (tested: 0.5 ug/ml)
- Kd (soluble CD16A (sCD16A) [2]): 18 nM

B2: covalent bispecific diabody of constructs 15 and 16 (pMGX0752+pMGX0753) (bispecific antibody)
chain 1: EIVLTQSPDFQSVTPKEKVTFTCRTSQSIGTNIHWYQQKPDQSPKLLIKEVSESISGVPSRFSGSGSGTDFTLTINSLEAEDAATYYCQQSNTWPFTFGGGTKVEIKGGGSGGGGQVTLRESGPALVKPTQTLTLTCTFSGFSLSTSGMGVGWIRQPPGKALEWLAHIWWDDDKRYNPALKSRLTISKDTSKNQVVLTMTNMDPVDTATYYCAQINPAWFAYWGQGTLVTVSSFNRGEC
chain 2: DIVMTQSPDSLAVSLGERATINCKASQSVDFDGDSFMNWYQQKPGQPPKLLIYTTSNLESGVPDRFSGSGSGTDFTLTISSLQAEDVAVYYCQQSNEDPYTFGQGTKLEIKGGGSGGGGQVQLVQSGAEVKKPGASVKVSCKASGYTFTNYWIHWVRQAPGQGLEWIGVIDPSDTYPNYNKKFKGRVTMTVVVSTSTAYMELRSLRSDDTAVYYCARNGDSDYYSGMDYWGQGTTVTVSSVEPKSC
notes: Construct 15 = Hu2B6VL-Hu3G8VH-FNRGEC; construct 16 = Hu3G8VL-Hu2B6VH-VEPKSC; also called construct 15/16 combination
- binding result (soluble CD16A (sCD16A) [3]): binds

B3: h2.4G2-h3G8 CBD produced from the polyprotein precursor construct 13 (bispecific antibody)
chain 1: DTVLTQSPASLAVSLGQRATISCKASQSVDFDGDSFMNWYQQKPGQPPKLLIYTTSNLESGIPARFSASGSGTDFTLNIHPVEEEDTATYYCQQSNEDPYTFGGGTKLEIKGGGSGGGGEVELVESGGGLVQPGRSLKLSCAASGFTFSDYYMAWVRQAPTTGLEWVASISYDGGDTHYRDSVKGRFTISRDNAKSSLYLQMDSLRSEDTATYYCATETTGIPTGVMDAWGQGVSVTVSSLGGCGGRAKR
chain 2: DVQMTQSPSNLAASPGESVSINCKASESISKYLAWYLQKPGKANKLLMYDGSTLQSGIPSRFSGSGSGTDFTLTIRSLEPEDFGLYYCQQHYEYPATFGSGTKLEIKGGGSGGGGQVTLKESGPGILQPSQTLSLTCSFSGFSLRTSGMGVGWIRQPSGKGLEWLAHIWWDDDKRYNPALKSRLTISKDTSSNQVFLKIASVDTADTATYYCAQINPAWFAYWGQGTLVTVSSLGGC
modifications: Interchain disulfide between the cysteines of the two LGGC sequences.
notes: In the assay it is the heterodimer of the two chains made by furin cleavage; also called pMGX0750 product; diabody molecules derived from the polyprotein precursor; copies: 1 + 1
- binding result (soluble CD16A (sCD16A) [4]): binds
- binding result (murine CD32B (mCD32B)): binds

B4: h2B6 covalent monospecific diabody (CMD) (other)
chain 1: EIVLTQSPDFQSVTPKEKVTFTCRTSQSIGTNIHWYQQKPDQSPKLLIKEVSESISGVPSRFSGSGSGTDFTLTINSLEAEDAATYYCQQSNTWPFTFGGGTKVEIKGGGSGGGGQVQLVQSGAEVKKPGASVKVSCKASGYTFTNYWIHWVRQAPGQGLEWIGVIDPSDTYPNYNKKFKGRVTMTVVVSTSTAYMELRSLRSDDTAVYYCARNGDSDYYSGMDYWGQGTTVTVSSLGGC
chain 2: B4 chain 1
modifications: Covalent homodimer: disulfide between the C-terminal LGGC cysteines of the two identical chains.
notes: also called h2B6 CMD; h2B6 diabody
- binding result (soluble CD16A (sCD16A) [5]): no binding (tested: 100 nM)
- binding result (soluble CD32A (sCD32A)): no binding (tested: 100 nM)
- Kd (soluble CD32B (sCD32B) [6]): 21 nM
